Patent publication US20230097573A1 (LG CHEM, published 2023)
Each block holds one binder with its values, some of them ahead of it.

Columns and labels:
Hu FcRn (BPS Bioscience) [1] = biological target: T1, Hu FcRn (BPS Bioscience) (human, UniProt P55899 24-297; P61769 21-119); test: ELISA, huFcRn coated, purified Affimer fusion, pH 6
T1 construct: Bought recombinant protein coated on ELISA plates; also called human FcRn; human neonatal Fc receptor
Protocol: (§1) The binding of AFFIMER® to hu-FcRn was evaluated by enzyme linked immunosorbent assay (ELISA) in 384 well plate format. Hu FcRn (BPS Bioscience) was coated at 5 μg/ml on the plate in 40 mM MES, pH 6. Plates were washed 3 times with 100 ul of washing buffer (PBS, Tween 20 0.05%, pH 6) with a plate washer and saturated with Casein 5% (Sigma) in MES pH 6 for 60 minutes at room temperature (25±1° C.). Plates were washed as described previously. AFFIMER® and negative controls (mAb anti hFcRn (clone ADM31), negative controls) were then diluted in duplicate, and loaded on the plate for 90 minutes at room temperature (25±1° C.). Plates were washed 3 times as described previously. Biotinylated polyclonal antibody anti Cystatin (R&D Systems) was then diluted in dilution buffer (1% casein, 0.05% Tween 20, and 8 mM MES, pH 6) and incubated 60 minutes at room temperature (25±1° C.). Plates were washed 3 times as described previously and Streptavidin HRP (N200, Thermo-Fisher) was incubated for 30 minutes at room temperature (25±1° C.). Plates were washed and the substrate (TMB, Pierce Thermo-Scientific) was added in the plate for 8±1 minute. The reaction was stopped using an acidic solution and plates were read at 450-630 nm. The EC₅₀ was then calculated using the interpolated non-linear four-parameters standard curve (FIGS. 5A-5B and Table 5A).

Hu FcRn (BPS Bioscience) [2] = biological target: T1, Hu FcRn (BPS Bioscience); test: ELISA, huFcRn coated, purified Affimer fusion, pH 7.4
Protocol: (§2) The binding of AFFIMER® to hu-FcRn was evaluated by enzyme linked immunosorbent assay (ELISA) in 384 well plate format. Hu FcRn (BPS Bioscience) was coated at 5 μg/ml on the plate in PBS, pH 7.4. Plates were washed 3 times with 100 ul of washing buffer (PBS, Tween 20 0.05%, pH 7.4) with a plate washer and saturated with Casein 5% (Sigma) in MES pH 7.4 for 60 minutes at room temperature (25±1° C.). Plates were washed as described previously. AFFIMER® and controls (mAb anti hFcRn (ADM31), blank) were then diluted in duplicate, and loaded on the plate for 90 minutes at room temperature (25±1° C.). Plates were washed 3 times as described previously. Biotinylated polyclonal antibody anti Cystatin (R&D Systems) was then diluted in dilution Buffer (1% casein, 0.01% Tween 20, and 8 mM MES. It is in pH7.4) and incubated 60 minutes at room temperature (25±1° C.). Plates were washed 3 times as described previously and Streptavidin HRP (N200, thermo-Fisher) was incubated for 30 minutes at room temperature (25±1° C.). Plates were washed and the substrate (TMB, Pierce Thermo-Scientific) was added in the plate for 8±1 minute. The reaction was stopped using an acidic solution and plates were read at 450-630 nm. The EC₅₀ was then calculated using the interpolated non-linear four-parameters standard curve (FIGS. 5A-5B, Table 5A).

Hu FcRn (BPS Bioscience) [3] = biological target: T1, Hu FcRn (BPS Bioscience); test: ELISA, huFcRn coated; ratio of the EC50 at the two pH values
Protocol: as §1
The binding of AFFIMER® to hu-FcRn was evaluated by enzyme linked immunosorbent assay (ELISA) in 384 well plate format. Hu FcRn (BPS Bioscience) was coated at 5 μg/ml on the plate in PBS, pH 7.4. Plates were washed 3 times with 100 ul of washing buffer (PBS, Tween 20 0.05%, pH 7.4) with a plate washer and saturated with Casein 5% (Sigma) in MES pH 7.4 for 60 minutes at room temperature (25±1° C.). Plates were washed as described previously. AFFIMER® and controls (mAb anti hFcRn (ADM31), blank) were then diluted in duplicate, and loaded on the plate for 90 minutes at room temperature (25±1° C.). Plates were washed 3 times as described previously. […]

Hu FcRn (BPS Bioscience) [4] = biological target: T1, Hu FcRn (BPS Bioscience); test: ELISA, huFcRn coated, pH 6
Protocol: The binding of AFFIMER® to Hu-FcRn was evaluated by enzyme linked immunosorbent assay (ELISA) in 384 well plate format. Hu FcRn (BPS Bioscience) was coated at 5 μg/ml on the plate in 40 mM MES, pH 6. Plates were washed 3 times with 100 μl of washing buffer (PBS, Tween 20 0.05%, pH 6) with a plate washer and saturated with Casein 5% (Sigma) in MES pH6 for 60 minutes at room temperature (25±1° C.). Plates were washed as described previously. AFFIMER® and negative controls (mAb anti hFcRn (clone ADM31), negative controls) were then diluted in duplicate, and loaded on the plate for 90 minutes at room temperature (25±1° C.). Plates were washed 3 times as described previously. Biotinylated polyclonal antibody anti Cystatin (R&D Systems) was then diluted in dilution Buffer (1% casein, 0.05% Tween 20, and 8 mM MES. It is in pH6) and incubated 60 minutes at room temperature (25±1° C.). Plates were washed 3 times as described previously and Streptavidin HRP (N200, thermo-Fisher) was incubated for 30 minutes at room temperature (25±1° C.). Plates were washed and the substrate (TMB, Pierce Thermo-Scientific) was added in the plate for 8±1 minute. The reaction was stopped using an acidic solution and plates were read at 450-630 nm. The EC50 was then calculated using the interpolated non-linear four-parameters standard curve (Table 4).

Hu FcRn (BPS Bioscience) [5] = biological target: T1, Hu FcRn (BPS Bioscience); test: ELISA, huFcRn coated, pH 7.4
Protocol: as §2, with “μl” for “ul”, “pH 7.4)” for “pH7.4)”, “nm.” for “nm. The EC₅₀ was then calculated using the interpolated non-linear four-parameters standard curve (FIGS. 5A-5B, Table 5A).”

Hu FcRn (BPS Bioscience) [6] = biological target: T1, Hu FcRn (BPS Bioscience); test: ELISA, huFcRn coated, purified Affimer, pH 6
Protocol: as §1

Hu FcRn (BPS Bioscience) [7] = biological target: T1, Hu FcRn (BPS Bioscience); test: ELISA, huFcRn coated, purified Affimer, pH 7.4
Protocol: as §2

EC50 (Hu FcRn (BPS Bioscience) [1]): 0.03 nM
EC50 (Hu FcRn (BPS Bioscience) [2]): 4.3 nM
pH 6/pH 7.4 (EC50 ratio) (Hu FcRn (BPS Bioscience) [3]): 143
B1: AVA04-251 FX6 (designed binder)
chain: MIPRGLSEAKPATPEIQEIVDKVKPQLEEKTNETYGKLEAVQYKTQVLALSFNNYHWHSTNYYIKVRAGDNKYMHLKVFNGPKLRHDKLTHADRVLTGYQVDKNKDDELTGFAEAAAKEAAAKEAAAKEAAAKEAAAKEAAAKMIPRGLSEAKPATPEIQEIVDKVKPQLEEKTNETYGKLEAVQYKTQVLAREGRQDWVLSTNYYIKVRAGDNKYMHLKVFNGPWVPFPHQQLADRVLTGYQVDKNKDDELTGFAEAAAKEAAAKEAAAKEAAAKEAAAKEAAAKMIPRGLSEAKPATPEIQEIVDKVKPQLEEKTNETYGKLEAVQYKTQVLAREGRQDWVLSTNYYIKVRAGDNKYMHLKVFNGPWVPFPHQQLADRVLTGYQVDKNKDDELTGFHHHHHH

EC50 (Hu FcRn (BPS Bioscience) [4]): 0.14 nM
EC50 (Hu FcRn (BPS Bioscience) [5]): 0.895 nM
EC50 (Hu FcRn (BPS Bioscience) [6]): 0.003 nM
EC50 (Hu FcRn (BPS Bioscience) [7]): 0.5 nM
pH 6/pH 7.4 (EC50 ratio) (Hu FcRn (BPS Bioscience) [3]): 167
B2: FcRn-38 (designed binder)
chain: MIPRGLSEAKPATPEIQEIVDKVKPQLEEKTNETYGKLEAVQYKTQVLALSFNNYHWHSTNYYIKVRAGDNKYMHLKVFNGPKLRHDKLTHADRVLTGYQVDKNKDDELTGFHHHHHH
notes: AFFIMER (stefin A variant); also called LGC01-38

EC50 (Hu FcRn (BPS Bioscience) [4]): 47.9 nM
EC50 (Hu FcRn (BPS Bioscience) [5]): 225 nM
EC50 (Hu FcRn (BPS Bioscience) [6]): 0.673 nM
EC50 (Hu FcRn (BPS Bioscience) [7]): 113 nM
pH 6/pH 7.4 (EC50 ratio) (Hu FcRn (BPS Bioscience) [3]): 168
B3: FcRn-35 (designed binder)
chain: MIPRGLSEAKPATPEIQEIVDKVKPQLEEKTNETYGKLEAVQYKTQVLAHRQYPPGPHSTNYYIKVRAGDNKYMHLKVFNGPYHFHHYYKHADRVLTGYQVDKNKDDELTGFHHHHHH
notes: AFFIMER (stefin A variant); also called LGC01-35
